Reference: the nanobody polyreactivity screen of Harvey et al. (2022)

Test: yeast display, Sf9 membrane polyspecificity reagent, FACS + sequencing; frameworks hold sequencing errors
In short: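 Galactose induction of a Saccharomyces cerevisiae BJ5465 synthetic nanobody display library ran 36–48 hours. The cells were then stained for 1 hour at 4 °C with 10% biotinylated, detergent-solubilized Sf9 membrane reagent, pulled down on streptavidin microbeads and FACS-sorted into low and high (top ~1%) gates on expression and reagent-binding fluorescence. Labels for polyreactivity follow the gate of origin.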

| Sequence | polyreactivity (PSR sort gate) |
| --- | --- |
| QVQLVESGGGLVQAGGSLRLSCAPSGIIFHKYAMGWYRQAPGTDRELVAVFTGRGGSTYYADSVKGRFTISRDFAKNTVYLQMNSLKPEDTAVYYCAAVTKSWRGATWYDYWGQGTQVTVSS | high polyreactivity |
| QVQLVESGGGLVQAGGSLRLSCAPSGIIFIRYAMGWYRQAPGKERELVAAISWRGGSTYYADSVKGRFTISRDNAKNTVYLQMNSLKPEDTAVYYCAAGYFSYRRYDYWGQGTQVTVSS | high polyreactivity |
| QVQLVESGGGLVQAGGSLRLSCAPSGIILAYYAMGWYRQAPGKERELVAAISRSGGITYYADSVKGRFTISRDNAKNTVYLQMNSLKPEDTAVYYCARYSSRPYDYWGQGTQVTVSS | high polyreactivity |
| QVQLVESGGGLVQAGGSLRLSCAPSGLIFYHYAMGWYRQAPGKERELVAGITRSGGSTYYADSVKGRFTISRDNAKNTVYLQMNSLKPEDTAVYYCAAKSLTTGKYGKYGYWGQGTQVTVSS | high polyreactivity |
| QVQLVESGGGLVQAGGSLRLSCAPSGLIIWDYVMGWYRQAPGKERELVAAISRSGGRTYYADSVKGRFTISRDNAKNTVYLQMNSLKPEDTAVYYCAARVRFSYASRSGYWGQGTQVTVSS | high polyreactivity |
| QVQLVESGGGLVQAGGSLRLSCAPSGLTIVTYAMGWYRQAPRKERELVAAISRSGGSTYYADSVKGRFTISRDNAKNTVYLQMNSLKPEDSAVYYCNAYSYVDLWAVYRYDYWGQGTQVTVSS | high polyreactivity |
| QVQLVESGGGLVQAGGSLRLSCAPSGRIFGHYAMGWYRQATGKERELVAAINWRGGSTYYADSVNGRFTISRDNAKNTVYLQMNSLKPEDTAVYYCAADWTKARDSIYDYWGQGTQVTVSS | low polyreactivity |
| QVQLVESGGGLVQAGGSLRLSCAPSGRIFGVYAMGWYRQAPGKERELVATIRSSGTRTNYADSVKGRFTISRDNAKNTVYLQMNSLKPEDTAVYYCAAGGRPYKLDFTRSDYWGQGTQVTVSS | low polyreactivity |
| QVQLVESGGGLVQAGGSLRLSCAPSGRIFKYNAMGWYRQAPGKERELVAAITSSGASTYYADSVKGRFTISRDIAKHTVYLQMNSLKPVVTAVYYCAARARRKYDYWGQGTQVTLSS | high polyreactivity |
| QVQLVESGGGLVQAGGSLRLSCAPSGRIFRYYAMGWYRPAPGKERELVAAISSRGASTYYADSVKGRYTISRDNAKNTVYLQMNRVKPEDTAVYYCGVRTYVYHWSFSSLPYVYWGQGTQVTVSS | high polyreactivity |
| QVQLVESGGGLVQAGGSLRLSCAPSGRIIRPYAKGWYIQAPGKERELVAAISVSGVITYYADSVKGRFTISRDNAKNTVYLQMNSLKPEDTAVYYCATDYTRRRWGRLYDYWGQGTQVTVSS | low polyreactivity |
| QVQLVESGGGLVQAGGSLRLSCAPSGRTFGSNTMGLYRQAPGKEIELVAGITFSSGSTYYADSVKGRFTISRDNANNTVYLQMNSLKPEDTAVYDCAVRNASKNRKYYYWGQGTQVTVSS | high polyreactivity |
| QVQLVESGGGLVQAGGSLRLSCAPSGRTFSRNAMGWYRQAPGKERELVAAISQRGVSTYYADSVKGSFTISRDNAQNSVYLQMNSLKPEDSAVYYCNTRGTYRYDYWGQGTQGTVSS | low polyreactivity |
| QVQLVESGGGLVQAGGSLRLSCAPSGRTFVDYDMGWYRQAPGKERELVADINSGGSTYYADSVKGRFTISRDNAKNTVYLQMNSLKPEDTAVYYCAARYTFDRWKFGYWGQGTQVTVSS | high polyreactivity |
| QVQLVESGGGLVQAGGSLRLSCAPSGRTFWYNAMGWYRQAPGKERELVATITSGGRTSYADSVKGRFTISRDNAKNTVYLQMNSLKPEDTAVYYCAATTGWYGARYGYWGQGTQVTVSS | high polyreactivity |
| QVQLVESGGGLVQAGGSLRLSCAPSGRTLIHYAMGWSRQAPGKEREFVATINIGGRTYADSVKGRFTISRDNAKTTVYLQMNSLKPEDSAVYYCDADHRYSARRSFPTLYDYWAQGTQVTVSS | low polyreactivity |
| QVQLVESGGGLVQAGGSLRLSCAPSGSIFAYYAMGWYRPAPGKERELVAAISKSGGRTYYADSVKGRFTISRDNAKNTVYLQMNSLKPEDTAVYYCAADGPGYTYDYWGQGTQVTVSS | high polyreactivity |
| QVQLVESGGGLVQAGGSLRLSCAPSGSIFGGYAMGWYRQAPGKERELVAGITYSGDSTYYADSVKGRFTISRDNAKYTVYLQMNSLKPEDTAVYYCNADQRVDHDDFDYWGQGTQVTVSS | low polyreactivity |
| QVQLVESGGGLVQAGGSLRLSCAPSGSIFGVYAMGWYRQAPGKERELVDTISWSAGSTYYADSVKGRFTISRDNAKNTVYLQMNSLKPVDTAVYYCGAGVRWLGLYDLFTFDYWGQGTQVTVSS | low polyreactivity |
| QVQLVESGGGLVQAGGSLRLSCAPSGSIFWLYDMGWYRPAPGKERELVAAIDSGDSTKYADSVKGRFTISRDNAKNTVYLQMNSLKPEDTAVYYCNASRRYHVRAPYDYWGQGTQVTVSS | low polyreactivity |
| QVQLVESGGGLVQAGGSLRLSCAPSGSILWLNAMGWYRQAPGKERELVADITRGGSTYYADSVKGRFTISRDNAKNTVYLQMNSLKPEDTAVYYCAAKRGKTYQRFDYWGQGTQVTVSS | high polyreactivity |
| QVQLVESGGGLVQAGGSLRLSCAPSGSTFRTYAMGWYRQAPGKERELVAAISSGDNTNYADSVKGRFTISRDNAKNTAYLQMNSLKPEDTAVYYCASRAYRWRSFYTMYYCGQGTQVTVSS | high polyreactivity |

| Sequence | polyreactivity (PSR sort gate) |
| --- | --- |
| QVQLVESGGGLVQAGGSLRLSCAPSGSTFRYNAMGWYRQAPGKERELVAAITFSGDSTSYADSVKGRFTISRDNAKNTVYLQMNSLKPEDTAVYYCAVDTWNGDGSGYSLEFEYWGQGTQVTVSS | low polyreactivity |
| QVQLVESGGGLVQAGGSLRLSCAPSGSTFYKYVMGWYRQAPGKERELVAAISQGGSSTYYADSVKGRFTISRDNAKYTVYVLMNSLKPEDTAVYYCAAQYWWWSRFEYDSWGQGTQVTVSS | low polyreactivity |
| QVQLVESGGGLVQAGGSLRLSCAPSGTTFTRNAMGWYREAPGKERELVAAISFSGGSTYYADSVKGRFTISRDNAKNTVYIQMNSLKPEDTAVYYCATKVEYRYYYWGQGTQVTVSS | high polyreactivity |
| QVQLVESGGGLVQAGGSLRLSCAPSGYIFYDNAMGWYRQAPGKEREFVAAITFSGDSTDYADSVKGRFTISRDNAKNTVYLQMNSLKPEDTAVYYFNTVYYRYYIELYFSSYDYWGQGTQVTVSS | high polyreactivity |
| QVQLVESGGGLVQAGGSLRLSCAPTGFIFFTYAMGWYRQAPGKERELVAAISQSGASTYYADSVKGRFTISRDNAKKTVYLQMNSLKPEDSAVDYCAATYSFRYWIQRYNYWGQGTQVTVSS | low polyreactivity |
| QVQLVESGGGLVQAGGSLRLSCASSGFIFFSYAMGWYRQAPGKERELVASISRSGGTTYYADSVKGRFTISRDNAKNTVYLQMNSLKPEDTAVYYCAARTYSYYSRDYWGQVTQVTVSS | high polyreactivity |
| QVQLVESGGGLVQAGGSLRLSCASSGFIFHHYGMGRSRQAPGKERELVAGDTHYADSVKGRFTISRDNAKNTVYLQMNSLKPEDTAVYYCNAYWKDDFEDGPGRRGMDYWGQGTLVTVSS | low polyreactivity |
| QVQLVESGGGLVQAGGSLRLSCASSGFIFRWYTMGWYRQAPGKERELVAAISWSSGSTSYADSVKGRFTISRDNAKNTVYLQMNSLKPEDTAVYYCAAVWRTASTQYYYWGQGTQVTVSS | high polyreactivity |
| QVQLVESGGGLVQAGGSLRLSCASSGFIFRYYAMGWYRQAPGKERELVAAISWRGDSTSYADSVKGRFTISRDNAKYTVYLQMNSLKPEDTAVYYCAAGRYLAYLYWGRYEYYYWGQGTQVTVSS | low polyreactivity |
| QVQLVESGGGLVQAGGSLRLSCASSGFIFVNYAMEWYRQAPGKERELVAAISRNGGRTYYADSVKGRFTISRDNAKNTVYFQMNSLKPEDTAVYYCTAELSGKRDYWGQGTQVTVSS | high polyreactivity |
| QVQLVESGGGLVQAGGSLRLSCASSGFILDYNAMGWYRQAPGKERQLVATITGRGDRTYYADSVKGRFTISRDNAKNTVYLQMNSLKPEDTAVYYCAAGFDGSSHPGFDSWGQGTQVTVSS | low polyreactivity |
| QVQLVESGGGLVQAGGSLRLSCASSGFTFDPYAMGWYRQAPGKERELVAAISWSGGSTYYADSVKGRFTISRDNAKNTVYLQMNSLKPEDTAVYYCAAEWYNSAYYEYDYWGQGTQVTVSS | high polyreactivity |
| QVQLVESGGGLVQAGGSLRLSCASSGFTFSDYAMAWYRQAPGKERELVADISTSGGSTYYADSVKGRFTISRDNAKNTVYLQMNSLKPEDTAVYYCAVRPGYYWGYWPRFGYWGQGTQVTVSS | low polyreactivity |
| QVQLVESGGGLVQAGGSLRLSCASSGFTFWYTMGWYRQAPGKEREFVAAITSGGGRTYYADSVKGRFTISRDNAKNTVYLQMNSLKPEETAVYYSAADSYYSWYDYWVQGTQVTVSS | high polyreactivity |
| QVQLVESGGGLVQAGGSLRLSCASSGHIFIGNAMGWYRQAPGKERELVAAISRGGGRTYYADSVKGRFTISRDNAKNTVFLQMNILKPEDTAVYYCATVGQGPTKTPAGRYDYWGQGTQVTVSS | high polyreactivity |
| QVQLVESGGGLVQAGGSLRLSCASSGIIFGGNAMGWYRQAPGKERELVATISNGGSTKYADSVKGRFTISRDNAKNTVYLQMNSLKPEDTAVYYCAAQPRVGSYVRSSRGRYNHWGQGTQVTVSS | high polyreactivity |
| QVQLVESGGGLVQAGGSLRLSCASSGITFGYYAMGWYRQAPGKESELGAARSGSGGSTYYADSVKGRFTISRDNAKNTVSLQMNSLKPEDTAVYDCAAEGPSNTLYWFSWEDYWGQGTQVTVSS | high polyreactivity |
| QVQLVESGGGLVQAGGSLRLSCASSGITFNLNDMGWYRQAPGKERELVAAITSGGNTSYADSVKGRFTISRDNAKNTVYLQMNSLKPEDTAVYYCATEDFRTDTGMYYWGQGTQVTVSS | low polyreactivity |
| QVQLVESGGGLVQAGGSLRLSCASSGITFVVNAMVWYRQAPGKEREFVAAIDVRGGTTYYADSVKGRFTISRDNAKNSVYLQMNSLKPEDTAVYYCAASSTSGYDWGQGTQVTVSS | low polyreactivity |
| QVQLVESGGGLVQAGGSLRLSCASSGLIFPFYDMGWYRQAPGKERELVAAMTRSGDSTYYADSVKGRFTISRDNAKNTVYLQMNSLKPEDTAVSYCAAQPGTASYAGDGDSWGQGTQVTVSS | low polyreactivity |
| QVQLVESGGGLVQAGGSLRLSCASSGLIYHRNAMGWYRQAPGKERELVAAITKTGGGTYYADSVKGRFTISRDNAKNTVYLQMNSLKPEDTAVYYCAADTQRTFYYWGQGTQVTVSS | low polyreactivity |
